Source: doi:10.1101/795211 (bioRxiv, 2019)

Experiments:
SEC-MALS = molecular target: the molecule itself; assay: SEC-MALS
[1] = molecular target: T1, His-tagged AtYefM co-expressed with AtYoeB from the pET-Duet vector (Agrobacterium tumefaciens strC58, UniProt Q7CY23 1-84); assay: SEC-MALS
T1 sequence (looked up): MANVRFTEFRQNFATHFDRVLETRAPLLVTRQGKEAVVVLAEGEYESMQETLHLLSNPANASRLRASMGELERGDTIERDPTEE

B1: YoeB toxin from Agrobacterium tumefaciens (AtYoeB), expressed alone, after removal of the GST-His affinity tag (natural protein)
chain: MKLVWTLSSWDDYEFWQRTDARMVEKINDLIRNAKRTPFAGLGKPEPLKGDMAGYWSRRITAEHRFVYRVSGSGSEQRLEVIQCRFHYQ
stoichiometry N (SEC-MALS): 2

B2: His-AtYefM, YefM antitoxin from Agrobacterium tumefaciens expressed alone (pET15b), His affinity tag kept (natural protein, Agrobacterium tumefaciens strC58, UniProt Q7CY23 1-84, looked up)
chain: MANVRFTEFRQNFATHFDRVLETRAPLLVTRQGKEAVVVLAEGEYESMQETLHLLSNPANASRLRASMGELERGDTIERDPTEE
stoichiometry N (SEC-MALS): 2

B3: AtYoeB co-expressed with His-AtYefM from the pET-Duet vector (natural protein)
chain: MKLVWTLSSWDDYEFWQRTDARMVEKINDLIRNAKRTPFAGLGKPEPLKGDMAGYWSRRITAEHRFVYRVSGSGSEQRLEVIQCRFHYQ
stoichiometry N [1]: 1
